Results taken from patent US20120027722A1 (MEDICAL RESEARCH COUNCIL, published 2012).
Read-outs that look alike come from different tables or passages of the source. No end group written: not given here.

Tests used:
AP33 mimotope peptide H6 [1] = biological target: T1, AP33 mimotope peptide H6; test: peptide ELISA: biotinylated peptide on streptavidin plate, COS7 supernatant, anti-human kappa HRP, OD 655 nm
T1 construct: captured on streptavidin plates; also called mimotope H6; H6 peptide
T1 peptide: VELRNLGGTWRPGSGK-biotin

E2 peptide B1 [2] = biological target: T2, E2 peptide B1 (Hepatitis C virus, genotype 2b (Table 5)); test: as above
Peptide D3 [3] = biological target: T3, Peptide D3; test: as above
T3 construct: member of the group m28

AP33 mimotope peptide H6 [4] = biological target: T1, AP33 mimotope peptide H6; test: as above
[5] = biological target: HCV E1E2 glycoproteins, isolate 2A2.4 (on HCVpp) (Hepatitis C virus genotype 2 (2A2.4)); test: cell-based or functional assay
[6] = biological target: HCV E1E2 glycoproteins, isolate 6.5.8 (on HCVpp) (Hepatitis C virus genotype 6 (6.5.8)); test: cell-based or functional assay
[7] = biological target: HCV E1E2 glycoproteins, isolate 4.21.16 (on HCVpp) (Hepatitis C virus genotype 4 (4.21.16)); test: cell-based or functional assay
[8] = biological target: HCV E1E2 glycoproteins, genotype 3a isolate F4/2-35 (on HCVpp) (Hepatitis C virus genotype 3a (F4/2-35)); test: cell-based or functional assay
[9] = biological target: HCV E1E2 glycoproteins, genotype 2a isolate JFH1 (on HCVpp) (Hepatitis C virus genotype 2a (JFH1), UniProt Q99IB8 192-383; Q99IB8 384-750); test: cell-based or functional assay
HCV E1E2 glycoproteins, genotype 2a isolate JFH1 (on HCVpp), sequence (Q99IB8 192-383 limits assumed, chain 1 of 2): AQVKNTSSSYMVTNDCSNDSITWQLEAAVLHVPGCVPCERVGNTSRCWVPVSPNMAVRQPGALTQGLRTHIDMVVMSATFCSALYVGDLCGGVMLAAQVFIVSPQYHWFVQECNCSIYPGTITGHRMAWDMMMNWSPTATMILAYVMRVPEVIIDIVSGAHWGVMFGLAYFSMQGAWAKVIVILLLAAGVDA
HCV E1E2 glycoproteins, genotype 2a isolate JFH1 (on HCVpp), sequence (Q99IB8 384-750 limits assumed, chain 2 of 2): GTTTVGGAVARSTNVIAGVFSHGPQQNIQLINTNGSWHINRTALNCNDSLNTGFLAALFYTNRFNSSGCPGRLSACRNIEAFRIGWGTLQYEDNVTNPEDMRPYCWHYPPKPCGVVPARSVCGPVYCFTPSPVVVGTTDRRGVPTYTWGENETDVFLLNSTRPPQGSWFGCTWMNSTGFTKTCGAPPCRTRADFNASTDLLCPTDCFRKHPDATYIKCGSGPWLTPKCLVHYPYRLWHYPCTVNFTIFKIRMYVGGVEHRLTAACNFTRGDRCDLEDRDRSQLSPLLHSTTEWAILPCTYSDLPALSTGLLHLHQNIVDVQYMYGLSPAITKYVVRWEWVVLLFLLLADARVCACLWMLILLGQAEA

AP33 mimotope peptide H6 [10] = biological target: T1, AP33 mimotope peptide H6; test: peptide ELISA: biotinylated peptide on streptavidin plate, COS7 supernatant, anti-human kappa HRP, OD 655 nm
AP33 mimotope peptide H6 [11] = biological target: T1, AP33 mimotope peptide H6; test: as above
AP33 mimotope peptide H6 [12] = biological target: T1, AP33 mimotope peptide H6; test: as above
E2 peptide B1 [13] = biological target: T2, E2 peptide B1; test: as above; remark: listed apart in the source
Peptide D3 [14] = biological target: T3, Peptide D3; test: as above; remark: listed apart in the source
[15] = biological target: HCV E1E2 glycoproteins, isolate 1A20.8 (on HCVpp) (Hepatitis C virus genotype 1 (1A20.8)); test: cell-based or functional assay
[16] = biological target: HCV E1E2 glycoproteins, isolate 5.15.11 (on HCVpp) (Hepatitis C virus genotype 5 (5.15.11)); test: cell-based or functional assay
[17] = biological target: HCV E1E2 glycoproteins, isolate 1B5.23 (on HCVpp) (Hepatitis C virus genotype 1 (1B5.23)); test: cell-based or functional assay
[18] = biological target: HCV E1E2 glycoproteins, isolate 2B1.1 (on HCVpp) (Hepatitis C virus genotype 2 (2B1.1)); test: cell-based or functional assay
E2 peptide C2 = biological target: T4, E2 peptide C2 (Hepatitis C virus, genotype 1a (Table 5), not fully specified (residue 16, C-terminus)); test: peptide ELISA: biotinylated peptide on streptavidin plate, COS7 supernatant, normalised as percentage of H6 binding
T4 peptide: QLINTNGSWHVNGSGK

Peptide D3 [19] = biological target: T3, Peptide D3
E2 peptide B1 [20] = biological target: T2, E2 peptide B1; test: peptide ELISA, COS7 supernatants, normalized to H6 binding

B1: AP33 RH-E/RK2bc (antibody, V domains shown)
VH: QVQLQESGPGLVKPSETLSLTCTVSGDSITSGYWNWIRQPPGRALEYMGYISYSGSTYYNLSLRSRVTISRDTSKNQYSLRLSSVTAADTAMYYCALITTTTYAMDYWGQGTTVTVS
VL: EIVLTQSPSSLSASVGDRVTITCRASESVDGYGNSFLHWFQQKPGKAPKLLIYLASNLNSGVPSRFSGSGSRTDFTLTISSLQPEDFATYYCQQNNVDPWTFGQGTKLEIK
notes: COS7 supernatant
AP33 mimotope peptide H6 [1]
  binding result: binds
E2 peptide B1 [2]
  binding result: no binding (tested: about 800 ng/ml)
Peptide D3 [3]
  binding result: binds

B2: Vh/RK2bc (antibody, V domains shown)
VH: EVQLQESGPSLVKPSQTLSLTCSVTGDSITSGYWNWIRKFPGNKLEYMGYISYSGSTYYNLSLRSRISITRDTSKNQYYLQLNSVTTEDTATYYCALITTTTYAMDYWGQGTSVTVS
VL: EIVLTQSPSSLSASVGDRVTITCRASESVDGYGNSFLHWFQQKPGKAPKLLIYLASNLNSGVPSRFSGSGSRTDFTLTISSLQPEDFATYYCQQNNVDPWTFGQGTKLEIK
notes: COS7 supernatant; also called chimeric AP33 heavy chain Vh with humanized light chain RK2bc
AP33 mimotope peptide H6 [4]
  binding result: binds

B3: RHA/Vl (humanized heavy chain RHA with chimeric light chain) (antibody, V domains shown)
VH: QVQLQESGPGLVKPSETLSLTCTVSGDSISSGYWNWIRQPPGRALEWIGYISYSGSTYYNLSLRSRVTISVDTSKNQFSLRLSSVTAADTAMYYCARITTTTYAMDYWGQGTTVTVS
VL: NIVLTQSPVSLAVSLGQRATISCRASESVDGYGNSFLHWFQQKPGQPPKLLIYLASNLNSGVPARFSGSGSRTDFTLTIDPVEADDAATYYCQQNNVDPWTFGGGTKLEIK
notes: Human IgG1/kappa from vectors pG1D200 and pKN100, COS7 expression
AP33 mimotope peptide H6 [4]
  binding result: binds

B4: humanized AP33 antibody RHb-h/RK2b (antibody, V domains shown)
VH: QVQLQESGPGLVKPSETLSLTCTVSGDSITSGYWNWIRQPPGRALEYMGYISYSGSTYYNLSLRSRITISRDTSKNQYSLRLSSVTAADTAMYYCALITTTTYAMDYWGQGTTVTVS
VL: EIVLTQSPSSLSASVGDRVTITCRASESVDGYGNSFLHWFQQKPGKAPKLLIYLASNLNSGVPSRFSGSGSGTDFTLTISSLQPEDFATYYCQQNNVDPWTFGQGTKLEIK
[5]
  IC50 of HCVpp infection (Huh-7, luciferase): 1.7 µg/mL
  IC90 of HCVpp infection (Huh-7, luciferase): 20 µg/mL
[6]
  IC50 of HCVpp infection (Huh-7, luciferase): < 0.41 µg/mL
  IC90 of HCVpp infection (Huh-7, luciferase): 3.7 µg/mL
[7]
  IC50 of HCVpp infection (Huh-7, luciferase): 0.33 µg/mL
  IC90 of HCVpp infection (Huh-7, luciferase): 3.64 µg/mL
[8]
  IC50 of HCVpp infection (Huh-7, luciferase): 1.15 µg/mL
  IC90 of HCVpp infection (Huh-7, luciferase): 8.3 µg/mL
[9]
  IC50 of HCVpp infection (Huh-7, luciferase): 2.7 µg/mL
  IC90 of HCVpp infection (Huh-7, luciferase): 22.1 µg/mL
AP33 mimotope peptide H6 [10]
  EC50 (read off the curve): ~0.04 µg/mL

B5: RHI/Vl (humanized heavy chain RHI with chimeric light chain) (antibody, V domains shown)
VH: QVQLQESGPGLVKPSETLSLTCTVSGDSITSGYWNWIRKPPGRALEYMGYISYSGSTYYNLSLRSRITISRDTSKNQYSLRLSSVTAADTAMYYCALITTTTYAMDYWGQGTTVTVS
VL: NIVLTQSPVSLAVSLGQRATISCRASESVDGYGNSFLHWFQQKPGQPPKLLIYLASNLNSGVPARFSGSGSRTDFTLTIDPVEADDAATYYCQQNNVDPWTFGGGTKLEIK
notes: as for B3
AP33 mimotope peptide H6 [11]
  binding result: binds

B6: humanized AP33 antibody RHI/RK2bc (antibody, V domains shown)
VH: QVQLQESGPGLVKPSETLSLTCTVSGDSITSGYWNWIRKPPGRALEYMGYISYSGSTYYNLSLRSRITISRDTSKNQYSLRLSSVTAADTAMYYCALITTTTYAMDYWGQGTTVTVS
VL: EIVLTQSPSSLSASVGDRVTITCRASESVDGYGNSFLHWFQQKPGKAPKLLIYLASNLNSGVPSRFSGSGSRTDFTLTISSLQPEDFATYYCQQNNVDPWTFGQGTKLEIK
notes: RHI is RHb-h with Q39K; Human IgG1/kappa from vectors pG1D200 and pKN100, COS7 expression; also called RHI (Q39K)/RK2bc
AP33 mimotope peptide H6 [11]
  binding result: binds

B7: humanized AP33 antibody RHA/RK2bc (antibody, V domains shown)
VH: QVQLQESGPGLVKPSETLSLTCTVSGDSISSGYWNWIRQPPGRALEWIGYISYSGSTYYNLSLRSRVTISVDTSKNQFSLRLSSVTAADTAMYYCARITTTTYAMDYWGQGTTVTVS
VL: EIVLTQSPSSLSASVGDRVTITCRASESVDGYGNSFLHWFQQKPGKAPKLLIYLASNLNSGVPSRFSGSGSRTDFTLTISSLQPEDFATYYCQQNNVDPWTFGQGTKLEIK
notes: Human IgG1/kappa from vectors pG1D200 and pKN100, COS7 expression; also called AP33RHA/RK2bc
AP33 mimotope peptide H6 [4]
  binding result: binds

B8: humanized AP33 antibody RH-G/RK2bc (antibody, V domains shown)
VH: QVQLQESGPGLVKPSETLSLTCTVSGDSITSGYWNWIRQPPGRALEYMGYISYSGSTYYNLSLRSRITISRDTSKNQFSLRLSSVTAADTAMYYCALITTTTYAMDYWGQGTTVTVS
VL: EIVLTQSPSSLSASVGDRVTITCRASESVDGYGNSFLHWFQQKPGKAPKLLIYLASNLNSGVPSRFSGSGSRTDFTLTISSLQPEDFATYYCQQNNVDPWTFGQGTKLEIK
AP33 mimotope peptide H6 [12]
  binding result: binds
E2 peptide B1 [13]
  binding result: no binding (tested: about 750 ng/ml)
Peptide D3 [14]
  binding result: binds

B9: chimeric AP33 antibody (Vh/Vl) (antibody, V domains shown)
VH: EVQLQESGPSLVKPSQTLSLTCSVTGDSITSGYWNWIRKFPGNKLEYMGYISYSGSTYYNLSLRSRISITRDTSKNQYYLQLNSVTTEDTATYYCALITTTTYAMDYWGQGTSVTVS
VL: NIVLTQSPVSLAVSLGQRATISCRASESVDGYGNSFLHWFQQKPGQPPKLLIYLASNLNSGVPARFSGSGSRTDFTLTIDPVEADDAATYYCQQNNVDPWTFGGGTKLEIK
notes: also called Vh/V1; chimeric antibody
[5]
  IC50 of HCVpp infection (Huh-7, luciferase): 0.88 µg/mL
  IC90 of HCVpp infection (Huh-7, luciferase): 6.67 µg/mL
[15]
  IC50 of HCVpp infection (Huh-7, luciferase): 1.1 µg/mL
  IC90 of HCVpp infection (Huh-7, luciferase): 11.5 µg/mL
[16]
  IC50 of HCVpp infection (Huh-7, luciferase): 0.088 µg/mL
  IC90 of HCVpp infection (Huh-7, luciferase): 1.11 µg/mL
[17]
  IC50 of HCVpp infection (Huh-7, luciferase): 1.15 µg/mL
  IC90 of HCVpp infection (Huh-7, luciferase): 11 µg/mL
[6]
  IC50 of HCVpp infection (Huh-7, luciferase): < 0.137 µg/mL
  IC90 of HCVpp infection (Huh-7, luciferase): 3.7 µg/mL
[7]
  IC50 of HCVpp infection (Huh-7, luciferase): < 0.137 µg/mL
  IC90 of HCVpp infection (Huh-7, luciferase): 0.83 µg/mL
[8]
  IC50 of HCVpp infection (Huh-7, luciferase): 0.48 µg/mL
  IC90 of HCVpp infection (Huh-7, luciferase): 3.2 µg/mL
[18]
  IC50 of HCVpp infection (Huh-7, luciferase): 3 µg/mL
  IC90 of HCVpp infection (Huh-7, luciferase): > 15 µg/mL
[9]
  IC50 of HCVpp infection (Huh-7, luciferase): 1.1 µg/mL
  IC90 of HCVpp infection (Huh-7, luciferase): 9.31 µg/mL
AP33 mimotope peptide H6 [4]
  binding result: binds
E2 peptide C2
  binding result: binds

B10: chimeric AP33 heavy chain mutant Y47F with chimeric light chain Vl (antibody, V domains shown)
VH: EVQLQESGPSLVKPSQTLSLTCSVTGDSITSGYWNWIRKFPGNKLEFMGYISYSGSTYYNLSLRSRISITRDTSKNQYYLQLNSVTTEDTATYYCALITTTTYAMDYWGQGTSVTVS
VL: NIVLTQSPVSLAVSLGQRATISCRASESVDGYGNSFLHWFQQKPGQPPKLLIYLASNLNSGVPARFSGSGSRTDFTLTIDPVEADDAATYYCQQNNVDPWTFGGGTKLEIK
notes: also called AP33 Y47F
Peptide D3 [19]
  EC50 (read off the curve): ~0.02 µg/mL
E2 peptide B1 [20]
  binding result: binds
E2 peptide C2
  binding result: binds

B11: chimeric AP33 heavy chain mutant Y47W with chimeric light chain Vl (antibody, V domains shown)
VH: EVQLQESGPSLVKPSQTLSLTCSVTGDSITSGYWNWIRKFPGNKLEWMGYISYSGSTYYNLSLRSRISITRDTSKNQYYLQLNSVTTEDTATYYCALITTTTYAMDYWGQGTSVTVS
VL: NIVLTQSPVSLAVSLGQRATISCRASESVDGYGNSFLHWFQQKPGQPPKLLIYLASNLNSGVPARFSGSGSRTDFTLTIDPVEADDAATYYCQQNNVDPWTFGGGTKLEIK
notes: also called AP33 Y47W
Peptide D3 [19]
  EC50 (read off the curve): ~0.03 µg/mL
E2 peptide B1 [20]
  binding result: binds
E2 peptide C2
  binding result: binds
